{"source": "patent US20160228502A1", "about": "(UNIVERSITY OF MARYLAND BALTIMORE, published 2016)", "binders": {"B1": {"name": "sarco(endo)plasmic reticulum Ca^2+-ATPase 1 (SERCA1) (enzyme)", "chain": "MEAAHSKSTEECLAYFGVSETTGLTPDQVKRHLEKYGHNELPAEEGKSLWELVIEQFEDLLVRILLLAACISFVLAWFEEGEETITAFVEPFVILLILIANAIVGVWQERNAENAIEALKEYEPEMGKVYRADRKSVQRIKARDIVPGDIVEVAVGDKVPADIRILSIKSTTLRVDQSILTGESVSVIKHTEPVPDPRAVNQDKKNMLFSGTNIAAGKALGIVATTGVSTEIGKIRDQMAATEQDKTPLQQKLDEFGEQLSKVISLICVAVWLINIGHFNDPVHGGSWIRGAIYYFKIAVALAVAAIPEGLPAVITTCLALGTRRMAKKNAIVRSLPSVETLGCTSVICSDKTGTLTTNQMSVCKMFIIDKVDGDFCSLNEFSITGSTYAPEGEVLKNDKPIRSGQFDGLVELATICALCNDSSLDFNETKGVYEKVGEATETALTTLVEKMNVFNTEVRNLSKVERANACNSVIRQLMKKEFTLEFSRDRKSMSVYCSPAKSSRAAVGNKMFVKGAPEGVIDRCNYVRVGTTRVPMTGPVKEKILSVIKEWGTGRDTLRCLALATRDTPPKREEMVLDDSSRFMEYETDLTFVGVVGMLDPPRKEVMGSIQLCRDAGIRVIMITGDNKGTAIAICRRIGIFGENEEVADRAYTGREFDDLPLAEQREACRRACCFARVEPSHKSKIVEYLQSYDEITAMTGDGVNDAPALKKAEIGIAMGSGTAVAKTASEMVLADDNFSTIVAAVEEGRAIYNNMKQFIRYLISSNVGEVVCIFLTAALGLPEALIPVQLLWVNLVTDGLPATALGFNPPDLDIMDRPPRSPKEPLISGWLFFRYMAIGGYVGAATVGAAAWWFMYAEDGPGVTYHQLTHFMQCTEDHPHFEGLDCEIFEAPEPMTMALSVLVTIEMCNALNSLSENQSLMRMPPWVNIWLLGSICLSMSLHFLILYVDPLPMIFKLKALDLTQWLMVLKISLPVIGLDEILKFIARNYLEDPEDERRK", "notes": "One entry covers native rabbit SERCA1 (SR vesicles) and untagged recombinant rabbit SERCA1 (COS7/HEK293 extracts and microsomes); The assay field of each row says which source was used; also called SERCA1-pcDNA3.1"}, "B2": {"name": "junctophilin-1 (JPH1), native, rabbit skeletal muscle SR vesicles (other, UniProt Q9GKY8 1-662, looked up)", "chain": "MTGGRFDFDDGGTYCGGWEEGKAHGHGICTGPKGQGEYSGSWSHGFEVVGGYTWPSGNTYQGYWAQGKRHGLGVETKGKWMYRGEWSHGFKGRYGVRQSLCTPARYEGTWSNGLQDGYGVETYGDGGTYQGQWAGGMRHGYGVRQSVPYGMATVIRSPLRTSLASLRSEQSNGSVLHDAAAAADTPTGTRGGFVLNFHADAELAGKKKGGLFRRGSLLGSMKLRKSESKSSISSKRSSVRSDAAMSRISSSDANSTISFGDVDCDFCPVEDHVDATTTETYMGEWKNDKRNGFGISERSNGMKYEGEWANNKRHGYGCTVFPDGSKEEGKYKNNILVRGIRKQLIPIRNTKTREKVDRAIEGAQRAAAMARTKVEIANSRTAHARAKADAADQAALAARQECDIARAVARELSPDFYQPGPDYIKQRLQEGVDAKENPEEKVPAKPPTPKESPHFYRKGTTPPGSPEASPKYSRSPQPSPPKPAKKQNPSSGARLNQDKRGVAEEQVTAIVNKPLTSKAPTKEVGAAVSQSKYSGRHHVPNPSNGELHSQYHGYYVKLHAPQHPPVDAEDDDRSSPSSSALVHKPSPNKWSPPKSVTKPVAKESKAEPKAKKSELAIPKNPASNDSCPSMEREANSGPNSVMIVLVMLLNIGLAILFVHFLT"}}, "key": {"[1]": {"target": "Maltose Binding Protein (MBP) alone (UniProt P0AEX9 27-392 = MBP)", "assay": "blot overlay on rabbit SR vesicle proteins", "experimental": "A FLAG empty vector was used as controls. […] 7B. Amylose resin bound to bacterially expressed sAnk1₂₉₋₁₅₅-MBP fusion protein was incubated with COS7 extracts transfected to express SERCA1. MBP protein alone was used as a control. […] Ponceau staining was used as a loading control (top panel). 7C. SR vesicle preparations were used for blot overlay assays. Blots were first overlaid with sAnk1₂₉₋₁₅₅-MBP or MBP protein alone, followed by incubation with antibodies to MBP. […] Ponceau staining was used as a loading control (right panel).\nThe blot overlay assay was performed as described (50, 69) with minor modifications. […] The generation and purification of these fusion proteins were as described (51). A separate section of the membrane was reserved to identify SERCA1. Blots were washed extensively with overlay buffer and once with TBS, pH 7.4, plus 0.5% Tween-20 (TBST). The blots were blocked in TBST+4% non-fat dry milk for 4 h at 25° C. and probed with antibodies to MBP (overlay portion) and SERCA1 (non-overlay portion). Immunoblots were completed as described above."}, "[2]": {"target": "B1", "assay": "cell-based or functional assay"}, "[3]": {"target": "B1", "assay": "coIP with antibodies to JPH1 from rabbit SR vesicles", "experimental": "CoIP experiments were performed as described in (60), with preparations of SR vesicles isolated by the method of Eletr and Inesi (61, 62) from rabbit skeletal muscle from the back and hind limb (Pel-Freez, Rogers, Ark.), or from crude membrane extracts of COS7 cells prepared as described (59, 63). For the latter, COS7 cells were harvested in PBS at 48 h following transfection, collected by centrifugation, frozen in liquid N₂ and stored at −80° C. until needed. Briefly, pellets were homogenized with 30 strokes of a glass Dounce homogenizer in resuspension buffer (0.25 M sucrose, 10 mM Tris-HCl, pH 7.5, 20 mM CaCl₂, 3 mM 2-mercaptoethanol, 150 mM KCl), and solubilized with an equal volume of lysis buffer (40 mM HEPES-NaOH, pH 7.5, 300 mM NaCl, 2 mM EDTA, 1% Tween 20). SR vesicles were prepared for coIP by the same methods for resuspension and solubilization. The muscle and cell extracts were pre-cleared with 50 μL uncoated Dynabeads. The pre-cleared extracts were mixed with antibody-coated Dynabeads (5 ug antibody/50 uL beads) and incubated at 4° C. for 4 h. […] Proteins in the samples were separated by SDS-PAGE and analyzed via immunoblot as described (64).\nThe interaction between SERCA1 and sAnk1 was first analyzed by co-immunoprecipitation (coIP), performed with SR vesicles prepared from rabbit skeletal muscle (see Methods). […]"}}, "note": "Where no end group is shown, it is not given here.", "data": [{"binder": "B1", "values": [{"measurement": "binding result", "setting": "[1]", "value": "no binding (tested: 3 µg/mL)"}]}, {"binder": "{FLAG tag}-MERSTRELCLNFTVVLITVILIWLLVRSYQY (other, rabbit, UniProt P42532 1-31, looked up, not shown: small tags and cut ends, not fully specified)", "note": "[N-terminal FLAG-tagged sarcolipin (NF-SLN)]", "values": [{"measurement": "ΔKCa2+ relative to SERCA1 Alone", "setting": "[2]", "value": -0.37, "unit": "pCa^2+ units"}]}, {"binder": "B2", "values": [{"measurement": "binding result", "setting": "[3]", "value": "no binding"}]}]}
